Test results taken from patent publication US8541373B2, “BChE albumin fusions for the treatment of cocaine abuse” (priority 2009, dated 2013).

Test system: cocaine
Test: Plasma cocaine, benzoylecgonine and ecgonine methyl ester (LC-MS) and cocaine PK after IV cocaine post-AlbuBChE
Type: in vivo, cynomolgus monkeys
Experimental: Blood was placed into K2EDTA blood collection tubes with esterase inhibitor diisopropylfluorophosphate (DFP). Tubes were inverted several times and placed on wet ice upon collection. Samples were centrifuged at 2-8° C. within 45 minutes of collection. The resultant plasma was recovered and a single 200 μL aliquot of plasma was placed into polypropylene tubes. Plasma samples were frozen over dry ice and stored at −75±15° C.
The following outline describes the LC-MS-based assay employed for the measurement of cocaine in plasma samples. Prior to MS analysis, plasma samples, calibration standards and controls were extracted using supported liquid extraction (SLE-ISOLUTE, Biotage). Twenty-five microliters of samples (25 μL) received 150 μl of 5% Ammonium hydroxide and 25 μl internal standard solution (Cocaine-d3). After mixing and transfer to SLE plate, samples were eluted with methylene chloride and evaporated to dryness. After resuspension in 50 μl of reconstitution solution—5% ACM in 10 mM ammonium acetate in water, 10 μl was injected onto Thermo Hypercarb column at 0.5 ml/min. Mobile phase was biphasic. Mass spectrophotometric detection was performed using Api 4000, APCI positive interface and Multiple Reaction Monitoring (MRM). Plasma concentrations of cocaine, benzoylecgonine and ecgonine methyl ester were determined using this assay.
When the data permits, pharmacokinetic parameter values for cocaine and its metabolites were determined using plasma concentration-times profiles for individual animals at all the study days of cocaine administration. […] Specifically the model for non-compartmental analysis with IV bolus input for cocaine and extravascular input for the metabolites.

[1] = 0.2 mg/kg IM, cocaine 1 mg/kg IV 120 hr post-AlbuBChE, 40 min after cocaine
[2] = 0.2 mg/kg IM, cocaine 1 mg/kg IV 120 hr post-AlbuBChE, 60 min after cocaine
[3] = 0.2 mg/kg IM, cocaine 1 mg/kg IV 240 hr post-AlbuBChE
[4] = 0.2 mg/kg IM, cocaine 1 mg/kg IV 240 hr post-AlbuBChE, 5 min after cocaine
[5] = 0.2 mg/kg IM, cocaine 1 mg/kg IV 240 hr post-AlbuBChE, 10 min after cocaine
[6] = 0.2 mg/kg IM, cocaine 1 mg/kg IV 240 hr post-AlbuBChE, 15 min after cocaine
[7] = 0.2 mg/kg IM, cocaine 1 mg/kg IV 240 hr post-AlbuBChE, 20 min after cocaine
[8] = 0.2 mg/kg IM, cocaine 1 mg/kg IV 240 hr post-AlbuBChE, 30 min after cocaine
[9] = 0.2 mg/kg IM, cocaine 1 mg/kg IV 240 hr post-AlbuBChE, 40 min after cocaine
[10] = 0.2 mg/kg IM, cocaine 1 mg/kg IV 240 hr post-AlbuBChE, 60 min after cocaine
[11] = 1 mg/kg IM, cocaine 1 mg/kg IV 2 hr post-AlbuBChE
[12] = 1 mg/kg IM, cocaine 1 mg/kg IV 2 hr post-AlbuBChE, 5 min after cocaine
[13] = 1 mg/kg IM, cocaine 1 mg/kg IV 2 hr post-AlbuBChE, 10 min after cocaine
[14] = 1 mg/kg IM, cocaine 1 mg/kg IV 2 hr post-AlbuBChE, 15 min after cocaine
[15] = 1 mg/kg IM, cocaine 1 mg/kg IV 2 hr post-AlbuBChE, 20 min after cocaine
[16] = 1 mg/kg IM, cocaine 1 mg/kg IV 2 hr post-AlbuBChE, 30 min after cocaine
[17] = 1 mg/kg IM, cocaine 1 mg/kg IV 2 hr post-AlbuBChE, 40 min after cocaine
[18] = 1 mg/kg IM, cocaine 1 mg/kg IV 2 hr post-AlbuBChE, 60 min after cocaine
[19] = 1 mg/kg IM, cocaine 1 mg/kg IV 48 hr post-AlbuBChE
[20] = 1 mg/kg IM, cocaine 1 mg/kg IV 48 hr post-AlbuBChE, 5 min after cocaine
[21] = 1 mg/kg IM, cocaine 1 mg/kg IV 48 hr post-AlbuBChE, 10 min after cocaine
[22] = 1 mg/kg IM, cocaine 1 mg/kg IV 48 hr post-AlbuBChE, 15 min after cocaine
[23] = 1 mg/kg IM, cocaine 1 mg/kg IV 48 hr post-AlbuBChE, 20 min after cocaine
[24] = 1 mg/kg IM, cocaine 1 mg/kg IV 48 hr post-AlbuBChE, 30 min after cocaine
[25] = 1 mg/kg IM, cocaine 1 mg/kg IV 48 hr post-AlbuBChE, 40 min after cocaine
[26] = 1 mg/kg IM, cocaine 1 mg/kg IV 48 hr post-AlbuBChE, 60 min after cocaine
[27] = 1 mg/kg IM, cocaine 1 mg/kg IV 96 hr post-AlbuBChE
[28] = 1 mg/kg IM, cocaine 1 mg/kg IV 96 hr post-AlbuBChE, 5 min after cocaine
[29] = 1 mg/kg IM, cocaine 1 mg/kg IV 96 hr post-AlbuBChE, 10 min after cocaine
[30] = 1 mg/kg IM, cocaine 1 mg/kg IV 96 hr post-AlbuBChE, 15 min after cocaine

AlbuBChE
Ecgonine methyl ester plasma concentration (mean) [1]: 98 ng/mL
Mean benzoylecgonine plasma concentration [1]: 61.4 ng/mL
Mean cocaine plasma concentration [1]: 141 ng/mL
Ecgonine methyl ester plasma concentration (mean) [2]: 82.9 ng/mL
Mean benzoylecgonine plasma concentration [2]: 66.2 ng/mL
Mean cocaine plasma concentration [2]: 64.7 ng/mL
Mean benzoylecgonine AUC(0-t) [3]: 4089 ng·min/mL
Mean cocaine AUC % Extrap [3]: 21.6%
Mean cocaine AUC(0-t) [3]: 13693 ng·min/mL
Mean cocaine AUC(0-∞) [3]: 17650 ng·min/mL
Mean cocaine C0 [3]: 549 ng/mL
Mean cocaine CI [3]: 57.4 mL/min/kg
Mean cocaine Vss [3]: 2.181 L/kg
Mean cocaine t½ [3]: 29.2 min
Ecgonine methyl ester plasma concentration (mean) [4]: 20.1 ng/mL
Mean benzoylecgonine plasma concentration [4]: 53.5 ng/mL
Mean cocaine plasma concentration [4]: 453 ng/mL
Ecgonine methyl ester plasma concentration (mean) [5]: 23.1 ng/mL
Mean benzoylecgonine plasma concentration [5]: 53.3 ng/mL
Mean cocaine plasma concentration [5]: 379 ng/mL
Ecgonine methyl ester plasma concentration (mean) [6]: 25.1 ng/mL
Mean benzoylecgonine plasma concentration [6]: 62.9 ng/mL
Mean cocaine plasma concentration [6]: 297 ng/mL
Ecgonine methyl ester plasma concentration (mean) [7]: 28.3 ng/mL
Mean benzoylecgonine plasma concentration [7]: 63.7 ng/mL
Mean cocaine plasma concentration [7]: 254 ng/mL
Ecgonine methyl ester plasma concentration (mean) [8]: 33.9 ng/mL
Mean benzoylecgonine plasma concentration [8]: 69.8 ng/mL
Mean cocaine plasma concentration [8]: 189 ng/mL
Ecgonine methyl ester plasma concentration (mean) [9]: 38.8 ng/mL
Mean benzoylecgonine plasma concentration [9]: 74.5 ng/mL
Mean cocaine plasma concentration [9]: 133 ng/mL
Ecgonine methyl ester plasma concentration (mean) [10]: 41.4 ng/mL
Mean benzoylecgonine plasma concentration [10]: 80.9 ng/mL
Mean cocaine plasma concentration [10]: 89.5 ng/mL
Mean benzoylecgonine AUC(0-t) [11]: 1960 ng·min/mL
Mean cocaine AUC(0-t) [11]: 7880 ng·min/mL
Mean cocaine C0 [11]: 422 ng/mL
Ecgonine methyl ester plasma concentration (mean) [12]: 235 ng/mL
Mean benzoylecgonine plasma concentration [12]: 30.1 ng/mL
Mean cocaine plasma concentration [12]: 308 ng/mL
Ecgonine methyl ester plasma concentration (mean) [13]: 227 ng/mL
Mean benzoylecgonine plasma concentration [13]: 33.2 ng/mL
Mean cocaine plasma concentration [13]: 235 ng/mL
Ecgonine methyl ester plasma concentration (mean) [14]: 276 ng/mL
Mean benzoylecgonine plasma concentration [14]: 32.5 ng/mL
Mean cocaine plasma concentration [14]: 179 ng/mL
Ecgonine methyl ester plasma concentration (mean) [15]: 301 ng/mL
Mean benzoylecgonine plasma concentration [15]: 32.5 ng/mL
Mean cocaine plasma concentration [15]: 73.7 ng/mL
Ecgonine methyl ester plasma concentration (mean) [16]: 291 ng/mL
Mean benzoylecgonine plasma concentration [16]: 28.9 ng/mL
Mean cocaine plasma concentration [16]: 102 ng/mL
Ecgonine methyl ester plasma concentration (mean) [17]: 202 ng/mL
Mean benzoylecgonine plasma concentration [17]: 38.4 ng/mL
Mean cocaine plasma concentration [17]: 96.9 ng/mL
Ecgonine methyl ester plasma concentration (mean) [18]: 189 ng/mL
Mean benzoylecgonine plasma concentration [18]: 29.6 ng/mL
Mean cocaine plasma concentration [18]: 19.7 ng/mL
Mean benzoylecgonine AUC(0-t) [19]: 1668 ng·min/mL
Mean cocaine AUC % Extrap [19]: 11.9%
Mean cocaine AUC(0-t) [19]: 5965 ng·min/mL
Mean cocaine AUC(0-∞) [19]: 6764 ng·min/mL
Mean cocaine C0 [19]: 226 ng/mL
Mean cocaine CI [19]: 150 mL/min/kg
Mean cocaine Vss [19]: 4.304 L/kg
Mean cocaine t½ [19]: 19.0 min
Ecgonine methyl ester plasma concentration (mean) [20]: 201 ng/mL
Mean benzoylecgonine plasma concentration [20]: 24.0 ng/mL
Mean cocaine plasma concentration [20]: 176 ng/mL
Ecgonine methyl ester plasma concentration (mean) [21]: 32.2 ng/mL
Mean benzoylecgonine plasma concentration [21]: 23.7 ng/mL
Mean cocaine plasma concentration [21]: 140 ng/mL
Ecgonine methyl ester plasma concentration (mean) [22]: 48.2 ng/mL
Mean benzoylecgonine plasma concentration [22]: 24.9 ng/mL
Mean cocaine plasma concentration [22]: 152 ng/mL
Ecgonine methyl ester plasma concentration (mean) [23]: 56.2 ng/mL
Mean benzoylecgonine plasma concentration [23]: 26.7 ng/mL
Mean cocaine plasma concentration [23]: 128 ng/mL
Ecgonine methyl ester plasma concentration (mean) [24]: 63.8 ng/mL
Mean benzoylecgonine plasma concentration [24]: 29.8 ng/mL
Mean cocaine plasma concentration [24]: 87.0 ng/mL
Ecgonine methyl ester plasma concentration (mean) [25]: 64.9 ng/mL
Mean benzoylecgonine plasma concentration [25]: 29.6 ng/mL
Mean cocaine plasma concentration [25]: 62.3 ng/mL
Ecgonine methyl ester plasma concentration (mean) [26]: 57.3 ng/mL
Mean benzoylecgonine plasma concentration [26]: 29.8 ng/mL
Mean cocaine plasma concentration [26]: 29.1 ng/mL
Mean benzoylecgonine AUC(0-t) [27]: 2741 ng·min/mL
Mean cocaine AUC % Extrap [27]: 18.4%
Mean cocaine AUC(0-t) [27]: 10044 ng·min/mL
Mean cocaine AUC(0-∞) [27]: 12313 ng·min/mL
Mean cocaine C0 [27]: 288 ng/mL
Mean cocaine CI [27]: 81.6 mL/min/kg
Mean cocaine Vss [27]: 2.94 L/kg
Mean cocaine t½ [27]: 23.9 min
Ecgonine methyl ester plasma concentration (mean) [28]: 138 ng/mL
Mean benzoylecgonine plasma concentration [28]: 43.9 ng/mL
Mean cocaine plasma concentration [28]: 265 ng/mL
Ecgonine methyl ester plasma concentration (mean) [29]: 39.8 ng/mL
Mean benzoylecgonine plasma concentration [29]: 41.2 ng/mL
Mean cocaine plasma concentration [29]: 245 ng/mL
Ecgonine methyl ester plasma concentration (mean) [30]: 42.9 ng/mL
Mean benzoylecgonine plasma concentration [30]: 40.0 ng/mL
Mean cocaine plasma concentration [30]: 218 ng/mL
